Data set [1] deals with Cpl-1 (Streptococcus phage Cp1, UniProt P15057). The data set can be described thus: analytical size exclusion chromatography. The format is binding. For orientation: Size exclusion chromatography separates by hydrodynamic size, large species first.
The target of data set [2] is SP-GH25 (uncultured virus). The data set can be described thus: SEC.
The target of data set [3] is Cpl-1 Δtail (bacteriophage Cp-1) (UniProt P15057). The data set can be described thus: AUC.
The target in data set [4] is SP-Amidase (uncultured virus). The data set can be described thus: SEC.
The target in data set [5] is SP-CHAP (uncultured virus). The data set can be described thus: SEC.
Data set [6] concerns the molecule itself. The data set can be described thus: SEC.

Positions count from the first letter of the chain named. Numbers in names are those of the source.

The values that follow come from publication PMC10577085 (ACS infectious diseases, 2023).

A word on the Kd: it is the equilibrium constant for the complex coming apart. Read a low Kd as a tighter complex. Usually stoichiometry N stands for the number of molecules, sites or subunits per partner or assembly.

Molecule `C[N+](C)(C)CCO` [choline] registered a Kd in data set [1] of roughly 5 mM.
Consider SP-GH25 (enzyme), for which the stoichiometry N in data set [2] is 2.
“Cpl-1 Δtail (from UniProt P15057 1-323) (domain or fragment)” had a stoichiometry N in data set [3] of 2.
With SP-Amidase (enzyme), in data set [4], the stoichiometry N was 2.
In data set [5], SP-CHAP (enzyme) yielded a stoichiometry N of 2.

B1: Cpl-1 DNP→AAA (enzyme, bacteriophage Cp-1, UniProt P15057 1-339, looked up)
chain: MVKKNDLFVDVSSHNGYDITGILEQMGTTNTIIKISESTTYLNPCLSAQVEQSNPIGFYHFARFGGDVAEAEREAQFFLDNVPMQVKYLVLDYEDDPSGDAQANTNACLRFMQMIADAGYKPIYYSYKPFTHDNVDYQQILAQFPNSLWIAGYGLNDGTANFEYFPSMDGIRWWQYSSNPFDKNIVLLDDEEDDKPKTAGTWKQDSKGWWFRRNNGSFPYNKWEKIGGVWYYFDSKGYCLTSEWLKDNEKWYYLKDNGAMATGWVLVGSEWYYMDDSGAMVTGWVKYKNNWYYMTNERGNMVSNEFIKSGKGWYFMNTNGELAAAASFTKEPDGLITVA
On to B1, for which the “stoichiometry N” value in data set [6] is 2.

B2: Cpl-1 KEP→AAA (enzyme, bacteriophage Cp-1, UniProt P15057 1-339, looked up)
chain: B1 chain with A324D, A325N, A326P, K330A, E331A, P332A
Turning to B2, the “stoichiometry N” value in data set [6] is 2.

B3: Cpl-1 F218A:Y238A (enzyme, bacteriophage Cp-1, UniProt P15057 1-339, looked up)
chain: B1 chain with F218A, Y238A, A324D, A325N, A326P
Take B3: the “stoichiometry N” value in data set [6] came to 2.

B4: Cpl-1 Y238A (enzyme, bacteriophage Cp-1, UniProt P15057 1-339, looked up)
chain: B1 chain with Y238A, A324D, A325N, A326P
As to B4, in data set [6], the “stoichiometry N” value came out at 2.

B5: Cpl-1 W210A:F218A:Y238A triple mutant (enzyme, bacteriophage Cp-1, UniProt P15057 1-339, looked up)
chain: B1 chain with W210A, F218A, Y238A, A324D, A325N, A326P
Turning to B5, the “stoichiometry N” value in data set [6] was 2.

B6: Cpl-1 F218A (enzyme, bacteriophage Cp-1, UniProt P15057 1-339, looked up)
chain: B1 chain with F218A, A324D, A325N, A326P
For B6, the “stoichiometry N” value in data set [6] was 2.

B7: Cpl-1 W210A:F218A (enzyme, bacteriophage Cp-1, UniProt P15057 1-339, looked up)
chain: B1 chain with W210A, F218A, A324D, A325N, A326P
Take B7: the “stoichiometry N” value in data set [6] worked out at 2.

B8: Cpl-1 W210A (enzyme, bacteriophage Cp-1, UniProt P15057 1-339, looked up)
chain: B1 chain with W210A, A324D, A325N, A326P
Regarding B8, the “stoichiometry N” value in data set [6] turned out to be 2.
